# Reference: paper PMC11036628
# Target: Dectin-1 (mouse (endogenous in bone marrow-derived dendritic cells)) (UniProt Q6QLQ4)
# Sequence of UniProt Q6QLQ4 (Q6QLQ4 whole entry): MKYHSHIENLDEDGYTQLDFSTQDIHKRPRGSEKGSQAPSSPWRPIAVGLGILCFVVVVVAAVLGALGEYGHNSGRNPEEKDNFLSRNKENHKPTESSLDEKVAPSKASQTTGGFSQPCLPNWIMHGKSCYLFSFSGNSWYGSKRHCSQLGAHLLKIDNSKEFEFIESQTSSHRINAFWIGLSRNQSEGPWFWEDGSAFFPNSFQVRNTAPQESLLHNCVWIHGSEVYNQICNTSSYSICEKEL
substance,measurement,value
Neem Leaf Glycoprotein (natural protein),"IL-10 transcripts by quantitative PCR on NLGP addition to tumour-conditioned mBMDCs; counterbalanced by Laminarin, Dectin-1 siRNA and both",4.5 fold
same,"IL-12p35 transcripts by quantitative PCR on NLGP addition to tumour-conditioned mBMDCs; counterbalanced by Laminarin, Dectin-1 siRNA and both",1.5 fold
